IntAct's records for PubMed 20228790

Molecular target: PRKCB, P05771-1
Sequence (P05771 whole entry, looked up): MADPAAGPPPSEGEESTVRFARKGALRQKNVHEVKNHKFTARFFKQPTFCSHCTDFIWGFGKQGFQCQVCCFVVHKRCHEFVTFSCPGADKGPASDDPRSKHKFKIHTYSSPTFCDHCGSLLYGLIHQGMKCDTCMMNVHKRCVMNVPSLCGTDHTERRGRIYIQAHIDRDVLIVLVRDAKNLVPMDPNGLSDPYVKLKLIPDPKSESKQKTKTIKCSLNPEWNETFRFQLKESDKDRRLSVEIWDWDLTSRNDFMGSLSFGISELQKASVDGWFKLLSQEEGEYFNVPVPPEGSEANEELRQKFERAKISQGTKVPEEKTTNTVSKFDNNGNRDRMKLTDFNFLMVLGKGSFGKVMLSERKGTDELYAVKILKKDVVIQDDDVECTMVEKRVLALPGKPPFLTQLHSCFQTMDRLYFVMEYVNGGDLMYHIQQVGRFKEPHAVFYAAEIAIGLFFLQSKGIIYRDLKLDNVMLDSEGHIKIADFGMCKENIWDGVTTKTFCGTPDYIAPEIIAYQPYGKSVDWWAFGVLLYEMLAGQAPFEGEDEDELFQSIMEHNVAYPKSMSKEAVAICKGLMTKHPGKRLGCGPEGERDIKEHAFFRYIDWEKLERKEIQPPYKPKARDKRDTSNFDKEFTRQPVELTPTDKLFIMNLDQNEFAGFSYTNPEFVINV

Histone H3.1 (Homo sapiens) (from UniProt P68431) T7A
effect of a mutation on the interaction: disrupting interaction
